Measurements: the supplement of paper PMC10724198
± gives the standard deviation of the averaged measurements.

Experiments:
[1] = tested on: Saccharomyces cerevisiae; assay: protein stability index of tFT-peptide fusion (C-terminal peptide) (PSI (0-1 scale)); higher = more stable (slower turnover)
Procedure: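 MPS profiling in S. cerevisiae of the tFT-X12 degron library: putative degron peptides plus stable controls, 12 aa, fused to the C-terminus of a sfGFP-mCherry timer. Cells are FACS-sorted into 8 mCherry/sfGFP bins and deep-sequenced. PSI runs from 0 (unstable) to 1 (stable). Backgrounds are wild type, das1Δ and doa10Δ at 30 °C, and wild type, das1Δ, cdc34-1 and cdc53-1 at 37 °C; 2-3 technical replicates each.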

[2] = tested on: Saccharomyces cerevisiae; assay: as above; settings: genetic background: wild type; temperature: 30 C
[3] = genetic background: cdc34-1, temperature: 37 C
[4] = genetic background: cdc53-1, temperature: 37 C
[5] = genetic background: das1 deletion, temperature: 30 C
[6] = genetic background: das1 deletion, temperature: 37 C
[7] = genetic background: doa10 deletion, temperature: 30 C
[8] = genetic background: wild type, temperature: 30 C
[9] = genetic background: wild type, temperature: 37 C
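Note: PSI is a weighted mean of sequencing reads over stability bins, variants kept only with over 10 reads, mCherry proximal and sfGFP distal, peptide attached via GGGS linker.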

Sequence | protein stability index [1, 3] | protein stability index [1, 4] | protein stability index [1, 5] | protein stability index [1, 6] | protein stability index [1, 7] | protein stability index [1, 8] | protein stability index [1, 9] | protein stability index [2]
VVVFRWTCWLLV | 0.0544 ± 0.005 | 0.144 ± 0.023 | 0.0835 ± 0.013 | 0.245 ± 0.0041 | 0.0257 ± 0.014 | 0.0385 ± 0.011 | 0.06333 ± 0.00029 | 0.0581 ± 0.028
VWSCILPMVYVW | 0.111 ± 0.066 | 0.109 ± 0.0066 | 0.156 ± 0.022 | 0.1639 ± 0.00068 | 0.135 ± 0.016 | 0.158 ± 0.0067 | 0.157 ± 0.011 | 0.203 ± 0.0046
VWWWGAVGWLMV | 0.572 ± 0.036 | 0.602 ± 0.028 | 0.528 ± 0.026 | 0.628 ± 0.016 | 0.392 ± 0.017 | 0.416 ± 0.018 | 0.547 ± 0.01 | 0.454 ± 0.0008
WCVRRVRFVMGC | 0.414 ± 0.019 | 0.458 ± 0.05 | 0.316 ± 0.024 | 0.479 ± 0.0081 | 0.2183 ± 0.0013 | 0.234 ± 0.027 | 0.378 ± 0.013 | 0.31 ± 0.0046
WFLVFLRVGDGP | 0.539 ± 0.01 | 0.566 ± 0.0072 | 0.362 ± 0.027 | 0.6 ± 0.0068 | 0.353 ± 0.039 | 0.378 ± 0.023 | 0.545 ± 0.016 | 0.474 ± 0.01
WKNIHGVFVFVM | 0.5472 ± 0.001 | 0.48 ± 0.014 | 0.389 ± 0.028 | 0.5696 ± 0.0012 | 0.25 ± 0.0047 | 0.284 ± 0.03 | 0.445 ± 0.0072 | 0.403 ± 0.012
WLCLGLVVGLFL | 0.44 ± 0.0069 | 0.488 ± 0.013 | 0.383 ± 0.029 | 0.459 ± 0.0058 | 0.339 ± 0.031 | 0.362 ± 0.017 | 0.47 ± 0.015 | 0.433 ± 0.041
WLCWVVWFPGLF | 0.395 ± 0.035 | 0.509 ± 0.028 | 0.369 ± 0.032 | 0.541 ± 0.012 | 0.1615 ± 0.00068 | 0.171 ± 0.012 | 0.297 ± 0.015 | 0.244 ± 0.035
WLFFVVLPVKAF | 0.0666 ± 0.0023 | 0.146 ± 0.02 | 0.178 ± 0.038 | 0.28 ± 0.016 | 0.104 ± 0.023 | 0.131 ± 0.026 | 0.154 ± 0.001 | 0.231 ± 0.0071
WLLSFLRFLVLR | 0.124 ± 0.015 | 0.0923 ± 0.027 | 0.322 ± 0.045 | 0.308 ± 0.02 | 0.8 ± 0.014 | 0.298 ± 0.026 | 0.32 ± 0.021 | 0.393 ± 0.029
WLVCAGWVVLSC | 0.153 ± 0.0026 | 0.2052 ± 0.00049 | 0.187 ± 0.023 | 0.2772 ± 0.0018 | 0.175 ± 0.0096 | 0.175 ± 0.026 | 0.222 ± 0.016 | 0.265 ± 0.033
WLYPVFKISYCV | 0.492 ± 0.0089 | 0.533 ± 0.024 | 0.357 ± 0.032 | 0.5131 ± 0.0049 | 0.282 ± 0.0049 | 0.33 ± 0.021 | 0.464 ± 0.017 | 0.381 ± 0.014
WNIVKHREDMLS | 0.685 ± 0.013 | 0.768 ± 0.015 | 0.638 ± 0.021 | 0.7359 ± 0.0046 | 0.63 ± 0.033 | 0.621 ± 0.027 | 0.7213 ± 0.0053 | 0.524 ± 0.14
WSLPPLLSPLYF | 0.717 ± 0.035 | 0.753 ± 0.019 | 0.67 ± 0.016 | 0.758 ± 0.02 | 0.676 ± 0.024 | 0.672 ± 0.012 | 0.7198 ± 0.0018 | 0.667 ± 0.34
WVCCFVWGCLIR | 0.2 ± 0.044 | 0.187 ± 0.0078 | 0.239 ± 0.021 | 0.353 ± 0.027 | 0.295 ± 0.0035 | 0.233 ± 0.019 | 0.303 ± 0.0074 | 0.281 ± 0.0081
WVLSRAAFVFFF | 0.587 ± 0.04 | 0.612 ± 0.0096 | 0.473 ± 0.019 | 0.606 ± 0.011 | 0.322 ± 0.0078 | 0.337 ± 0.022 | 0.5201 ± 0.0035 | 0.44 ± 0.018
WVVLVCGFVLLG | 0.246 ± 0.0069 | 0.369 ± 0.0077 | 0.243 ± 0.042 | 0.442 ± 0.0073 | 0.22 ± 0.0029 | 0.234 ± 0.019 | 0.361 ± 0.012 | 0.3175 ± 0.0027

Sequence | protein stability index [1, 3] | protein stability index [1, 4] | protein stability index [1, 5] | protein stability index [1, 6] | protein stability index [1, 7] | protein stability index [1, 8] | protein stability index [1, 9] | protein stability index [2]
YAFSTCTILIRF | 0.187 ± 0.0071 | 0.154 ± 0.044 | 0.211 ± 0.034 | 0.338 ± 0.015 | 0.38 ± 0.013 | 0.222 ± 0.018 | 0.3071 ± 0.0018 | 0.328 ± 0.048
YFTNCYRSILTF | 0.4366 ± 0.0011 | 0.487 ± 0.013 | 0.367 ± 0.047 | 0.51517 ± 0.00037 | 0.3196 ± 0.00079 | 0.355 ± 0.031 | 0.48177 ± 0.00025 | 0.4436 ± 0.00083
YGWILQLPCFVI | 0.246 ± 0.02 | 0.237 ± 0.00093 | 0.24 ± 0.031 | 0.37294 ± 0.00032 | 0.219 ± 0.0057 | 0.245 ± 0.023 | 0.315 ± 0.027 | 0.338 ± 0.0082
YHDKLRAIEKFF | 0.669 ± 0.03 | 0.725 ± 0.0075 | 0.635 ± 0.018 | 0.74 ± 0.03 | 0.199 ± 0.019 | 0.219 ± 0.04 | 0.49 ± 0.0052 | 0.331 ± 0.065
YLCFVVSCGVLR | 0.421 ± 0.0051 | 0.475 ± 0.026 | 0.327 ± 0.031 | 0.529 ± 0.0087 | 0.295 ± 0.018 | 0.313 ± 0.017 | 0.5035 ± 0.0016 | 0.383 ± 0.086
YLFFSCIFTFSC | 0.121 ± 0.025 | 0.198 ± 0.027 | 0.179 ± 0.024 | 0.331 ± 0.014 | 0.189 ± 0.011 | 0.211 ± 0.091 | 0.273 ± 0.018 | 0.316 ± 0.025
YLFLPGGEVSVH | 0.641 ± 0.033 | 0.653 ± 0.019 | 0.538 ± 0.032 | 0.666 ± 0.0033 | 0.5204 ± 0.0031 | 0.553 ± 0.019 | 0.6369 ± 0.00098 | 0.487 ± 0.083
YLGSPLSLMLVA | 0.48 ± 0.022 | 0.491 ± 0.026 | 0.379 ± 0.031 | 0.51 ± 0.006 | 0.332 ± 0.031 | 0.355 ± 0.022 | 0.481 ± 0.009 | 0.475 ± 0.032
YPFSLVLGVFAF | 0.367 ± 0.02 | 0.389 ± 0.022 | 0.298 ± 0.028 | 0.456 ± 0.0094 | 0.285 ± 0.01 | 0.325 ± 0.0062 | 0.4104 ± 0.0034 | 0.405 ± 0.033
YPPLFLLMRGVL | 0.594 ± 0.021 | 0.694 ± 0.013 | 0.605 ± 0.018 | 0.712 ± 0.021 | 0.157 ± 0.011 | 0.175 ± 0.034 | 0.357 ± 0.016 | 0.258 ± 0.075
YRHYGVARKKLA | 0.592 ± 0.075 | 0.7016 ± 0.0023 | 0.634 ± 0.034 | 0.713 ± 0.028 | 0.081 ± 0.009 | 0.134 ± 0.01 | 0.127 ± 0.016 | 0.152 ± 0.0056
YTQKFTFYGLPA | 0.701 ± 0.035 | 0.721 ± 0.013 | 0.639 ± 0.038 | 0.727 ± 0.013 | 0.618 ± 0.033 | 0.616 ± 0.016 | 0.708 ± 0.02 | 0.027 ± 0.023
YVRHDKLILSFC | 0.492 ± 0.026 | 0.529 ± 0.041 | 0.427 ± 0.021 | 0.5562 ± 0.0027 | 0.3915 ± 0.002 | 0.414 ± 0.019 | 0.54 ± 0.011 | 0.489 ± 0.013
YVSLPFVVWWFC | 0.443 ± 0.029 | 0.533 ± 0.016 | 0.414 ± 0.026 | 0.591 ± 0.0081 | 0.1839 ± 0.0011 | 0.198 ± 0.014 | 0.375 ± 0.0063 | 0.309 ± 0.033
YWFWLLIGSFSC | 0.487 ± 0.053 | 0.51 ± 0.013 | 0.382 ± 0.026 | 0.526 ± 0.011 | 0.36 ± 0.019 | 0.382 ± 0.024 | 0.504 ± 0.012 | 0.4576 ± 0.0029
YWGFHPCCAFGY | 0.722 ± 0.048 | 0.784 ± 0.012 | 0.636 ± 0.013 | 0.77 ± 0.023 | 0.654 ± 0.035 | 0.659 ± 0.019 | 0.745 ± 0.051 | 0.711 ± 0.0091
YYQVSQKIQRKQ | 0.681 ± 0.012 | 0.708 ± 0.021 | 0.639 ± 0.023 | 0.726 ± 0.042 | 0.323 ± 0.0077 | 0.371 ± 0.018 | 0.584 ± 0.014 | 0.435 ± 0.065
